Entries after “also recorded” stand apart in the source; their conditions may differ.
What was measured:
[1] = target: T1, LRP-1 on isolated brain capillaries (Mus musculus, UniProt Q91ZX7); assay: Brain capillary uptake (in vitro clearance of 125I-Aβ by isolated brain capillaries); assay type: cell-based; settings: for lower affinity (Ki) for LRP-mediated clearance on brain capillaries than Aβ1-40: 125I-Aβ1-40 as test-ligand, unlabeled peptide 40 nM
T1 construct: from tissue; host or cells: isolated brain capillaries of wild-type and RAP null mice
T1 sequence (Q91ZX7 20-4545): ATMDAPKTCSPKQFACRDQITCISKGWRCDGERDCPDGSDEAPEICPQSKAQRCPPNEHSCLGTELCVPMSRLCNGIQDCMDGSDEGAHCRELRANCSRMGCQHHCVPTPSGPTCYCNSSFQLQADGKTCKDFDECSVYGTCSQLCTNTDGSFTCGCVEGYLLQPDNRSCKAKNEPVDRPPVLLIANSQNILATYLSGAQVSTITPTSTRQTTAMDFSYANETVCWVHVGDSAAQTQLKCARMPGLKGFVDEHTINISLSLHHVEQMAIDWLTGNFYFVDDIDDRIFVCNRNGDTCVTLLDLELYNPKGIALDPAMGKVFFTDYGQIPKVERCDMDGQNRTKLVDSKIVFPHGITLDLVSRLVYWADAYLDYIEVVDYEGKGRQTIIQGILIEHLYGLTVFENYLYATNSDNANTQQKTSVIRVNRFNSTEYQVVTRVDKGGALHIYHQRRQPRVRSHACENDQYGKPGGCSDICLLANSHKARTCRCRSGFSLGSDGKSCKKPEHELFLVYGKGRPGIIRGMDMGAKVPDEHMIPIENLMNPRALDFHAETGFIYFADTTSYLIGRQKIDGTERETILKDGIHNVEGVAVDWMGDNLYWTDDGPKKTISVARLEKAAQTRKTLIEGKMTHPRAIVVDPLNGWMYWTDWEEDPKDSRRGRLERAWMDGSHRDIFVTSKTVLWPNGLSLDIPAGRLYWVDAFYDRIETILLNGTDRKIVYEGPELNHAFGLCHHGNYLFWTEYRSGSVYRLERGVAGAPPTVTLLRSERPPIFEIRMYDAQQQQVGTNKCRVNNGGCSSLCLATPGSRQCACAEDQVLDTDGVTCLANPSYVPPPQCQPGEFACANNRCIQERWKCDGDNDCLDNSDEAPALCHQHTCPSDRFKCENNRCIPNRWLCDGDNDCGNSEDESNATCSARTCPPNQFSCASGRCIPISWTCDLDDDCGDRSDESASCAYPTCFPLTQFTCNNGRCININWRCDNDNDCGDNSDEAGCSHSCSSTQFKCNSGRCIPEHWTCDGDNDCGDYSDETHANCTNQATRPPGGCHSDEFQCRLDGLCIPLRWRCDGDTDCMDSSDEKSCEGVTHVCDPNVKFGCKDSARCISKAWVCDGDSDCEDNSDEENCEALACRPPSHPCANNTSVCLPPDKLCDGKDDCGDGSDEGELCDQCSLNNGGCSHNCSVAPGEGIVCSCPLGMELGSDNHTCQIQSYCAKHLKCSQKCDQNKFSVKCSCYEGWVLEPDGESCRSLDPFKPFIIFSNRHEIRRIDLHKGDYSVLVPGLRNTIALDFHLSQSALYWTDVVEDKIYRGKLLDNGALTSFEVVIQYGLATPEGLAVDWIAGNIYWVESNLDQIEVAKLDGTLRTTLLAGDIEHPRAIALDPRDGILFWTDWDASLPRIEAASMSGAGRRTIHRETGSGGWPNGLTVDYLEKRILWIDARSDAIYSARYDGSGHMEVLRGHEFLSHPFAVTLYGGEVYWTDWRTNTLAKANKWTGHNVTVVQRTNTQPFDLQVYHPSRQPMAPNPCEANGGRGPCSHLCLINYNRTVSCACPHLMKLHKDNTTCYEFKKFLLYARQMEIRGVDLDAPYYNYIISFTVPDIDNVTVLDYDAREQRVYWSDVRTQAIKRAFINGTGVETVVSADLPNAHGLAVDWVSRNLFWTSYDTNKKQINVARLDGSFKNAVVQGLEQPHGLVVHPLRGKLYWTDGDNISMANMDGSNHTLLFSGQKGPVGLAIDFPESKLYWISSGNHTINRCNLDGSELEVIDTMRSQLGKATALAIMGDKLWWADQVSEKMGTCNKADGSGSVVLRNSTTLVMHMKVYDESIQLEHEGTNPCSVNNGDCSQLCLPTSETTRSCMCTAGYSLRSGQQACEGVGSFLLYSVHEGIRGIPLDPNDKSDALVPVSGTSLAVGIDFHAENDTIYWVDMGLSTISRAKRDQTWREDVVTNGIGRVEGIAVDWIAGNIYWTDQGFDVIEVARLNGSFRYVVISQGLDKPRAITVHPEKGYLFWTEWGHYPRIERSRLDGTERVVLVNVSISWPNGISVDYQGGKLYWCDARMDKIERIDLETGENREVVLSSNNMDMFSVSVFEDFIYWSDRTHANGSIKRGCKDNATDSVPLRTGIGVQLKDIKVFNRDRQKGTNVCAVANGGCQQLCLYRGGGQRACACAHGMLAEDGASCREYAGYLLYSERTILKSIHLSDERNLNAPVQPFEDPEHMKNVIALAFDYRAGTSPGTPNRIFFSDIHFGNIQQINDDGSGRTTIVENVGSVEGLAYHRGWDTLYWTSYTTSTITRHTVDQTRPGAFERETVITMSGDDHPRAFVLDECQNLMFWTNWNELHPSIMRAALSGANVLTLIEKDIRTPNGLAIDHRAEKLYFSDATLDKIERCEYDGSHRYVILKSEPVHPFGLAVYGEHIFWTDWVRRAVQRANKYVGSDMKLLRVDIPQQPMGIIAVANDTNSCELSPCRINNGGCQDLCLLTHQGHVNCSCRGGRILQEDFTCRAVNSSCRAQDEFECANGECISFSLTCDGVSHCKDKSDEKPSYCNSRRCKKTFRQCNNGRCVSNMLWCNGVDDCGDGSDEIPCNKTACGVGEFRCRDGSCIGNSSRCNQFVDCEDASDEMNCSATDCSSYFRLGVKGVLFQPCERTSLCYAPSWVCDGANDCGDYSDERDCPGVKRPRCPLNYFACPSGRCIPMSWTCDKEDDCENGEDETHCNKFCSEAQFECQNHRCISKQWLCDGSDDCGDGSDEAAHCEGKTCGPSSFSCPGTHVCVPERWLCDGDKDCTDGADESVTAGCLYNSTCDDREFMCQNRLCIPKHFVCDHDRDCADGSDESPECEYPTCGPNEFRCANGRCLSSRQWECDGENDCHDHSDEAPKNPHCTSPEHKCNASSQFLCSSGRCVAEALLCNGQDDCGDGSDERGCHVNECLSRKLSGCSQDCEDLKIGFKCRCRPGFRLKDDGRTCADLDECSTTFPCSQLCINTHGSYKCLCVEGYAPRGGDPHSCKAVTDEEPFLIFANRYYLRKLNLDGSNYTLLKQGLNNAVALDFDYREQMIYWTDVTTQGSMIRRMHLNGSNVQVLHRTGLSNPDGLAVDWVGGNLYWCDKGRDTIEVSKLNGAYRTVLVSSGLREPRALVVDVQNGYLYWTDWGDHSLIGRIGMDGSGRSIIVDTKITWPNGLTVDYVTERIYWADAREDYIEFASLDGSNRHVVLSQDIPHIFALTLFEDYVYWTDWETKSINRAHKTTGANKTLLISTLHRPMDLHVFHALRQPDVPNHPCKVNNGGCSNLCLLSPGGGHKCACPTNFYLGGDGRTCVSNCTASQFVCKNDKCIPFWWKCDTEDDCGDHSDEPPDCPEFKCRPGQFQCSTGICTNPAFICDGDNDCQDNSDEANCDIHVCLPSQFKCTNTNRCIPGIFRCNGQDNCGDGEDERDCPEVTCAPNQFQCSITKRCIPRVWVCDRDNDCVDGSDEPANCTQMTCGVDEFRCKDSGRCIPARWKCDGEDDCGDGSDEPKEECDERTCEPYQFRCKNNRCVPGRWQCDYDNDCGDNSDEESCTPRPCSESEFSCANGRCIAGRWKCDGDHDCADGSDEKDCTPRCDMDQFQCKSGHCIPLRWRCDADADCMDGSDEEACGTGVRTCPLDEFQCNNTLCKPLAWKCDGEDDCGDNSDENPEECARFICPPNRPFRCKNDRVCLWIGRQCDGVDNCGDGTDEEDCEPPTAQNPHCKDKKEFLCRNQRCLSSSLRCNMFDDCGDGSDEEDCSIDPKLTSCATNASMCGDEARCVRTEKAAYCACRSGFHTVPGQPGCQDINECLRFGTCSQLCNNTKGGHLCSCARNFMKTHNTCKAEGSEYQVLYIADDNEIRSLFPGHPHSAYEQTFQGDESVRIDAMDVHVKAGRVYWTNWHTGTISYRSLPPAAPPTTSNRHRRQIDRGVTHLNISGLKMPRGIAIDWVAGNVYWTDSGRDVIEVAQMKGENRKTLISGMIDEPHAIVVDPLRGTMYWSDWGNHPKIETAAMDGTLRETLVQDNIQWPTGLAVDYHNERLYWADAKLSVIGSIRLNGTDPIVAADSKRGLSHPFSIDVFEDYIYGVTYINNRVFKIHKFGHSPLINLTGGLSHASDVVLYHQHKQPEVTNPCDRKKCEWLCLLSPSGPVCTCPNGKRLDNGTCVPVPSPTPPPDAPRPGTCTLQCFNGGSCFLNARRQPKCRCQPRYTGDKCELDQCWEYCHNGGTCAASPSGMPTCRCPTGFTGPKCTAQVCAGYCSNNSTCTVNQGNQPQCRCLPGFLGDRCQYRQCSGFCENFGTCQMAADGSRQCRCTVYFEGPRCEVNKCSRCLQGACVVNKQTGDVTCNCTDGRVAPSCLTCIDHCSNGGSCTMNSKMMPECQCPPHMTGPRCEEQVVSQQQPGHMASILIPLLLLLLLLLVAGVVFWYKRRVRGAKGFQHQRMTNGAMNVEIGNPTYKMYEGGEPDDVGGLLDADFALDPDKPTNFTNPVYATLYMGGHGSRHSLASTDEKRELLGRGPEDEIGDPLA

[2] = target: T2, LRP-1 cluster II (Homo sapiens, UniProt Q07954); assay: Surface plasmon resonance binding of Aβ peptides to immobilized LRP-1 cluster II; settings: RAP 500 nM
T2 construct: cluster II (i.e., Arg786 to Leu1165 as numbered in Herz et al., 1988); made in house; host or cells: stably transfected baby hamster kidney (BHK) cells
T2 sequence (Q07954 786-1165): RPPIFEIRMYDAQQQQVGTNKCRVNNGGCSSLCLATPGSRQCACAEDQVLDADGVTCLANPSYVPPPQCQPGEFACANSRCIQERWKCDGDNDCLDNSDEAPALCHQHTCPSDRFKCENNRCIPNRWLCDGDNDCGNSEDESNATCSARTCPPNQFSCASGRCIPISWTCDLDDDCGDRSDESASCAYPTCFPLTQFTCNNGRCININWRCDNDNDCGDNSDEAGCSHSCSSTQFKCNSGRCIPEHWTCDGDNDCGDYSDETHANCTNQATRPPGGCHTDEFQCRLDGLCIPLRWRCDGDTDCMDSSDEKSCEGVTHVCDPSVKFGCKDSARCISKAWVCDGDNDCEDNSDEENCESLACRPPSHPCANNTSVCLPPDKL
Protocol: (§1) RAP was used at 500 nM. Ligand solution was replaced with buffer to initiate dissociation. […] Apparent affinity constants Kd(app) were inferred from the ratio koff(app)/kon(app). Data are based on three to five measurements using six to nine different concentrations for each measurement. Data are presented as the mean±SEM. Analysis was performed using BIACORE X biosensor system (Uppsala, Sweden) and BIA evaluation 3.0 software (Biocore, Sweden).

[3] = target: T3, LRP-1 at the blood-brain barrier (Mus musculus, UniProt Q91ZX7); assay: Brain clearance studies: efflux of 125I-Aβ from brain ISF across the blood-brain barrier; assay type: in vivo; settings: RAP 1 μM, αLRP-1 60 μg/ml, NI IgG 60 μg/ml, 30 min
T3 construct: from tissue; host or cells: living mouse brain (C57BL/6, RAP null and littermate controls), microinjection into brain ISF
T3 sequence (Q91ZX7 20-4545): as the sequence (Q91ZX7 20-4545) above
Protocol: All studies were performed according to National Institutes of Health guidelines using an approved institutional protocol. […] Briefly a stainless steel guide cannula was implanted stereotaxically into the right caudate-putamen of anesthetized mice (0.5 mg/kg ketamine and 5 mg/kg xylazine I.P.). Coordinates for tip of the cannula were 0.9 mm anterior and 1.9 mm lateral to the bregma and 2.9 mm below the surface of the brain. Animals were allowed to recover after surgery prior to radiotracer studies. […] When the effects of the different unlabeled molecular reagents were tested, they were injected simultaneously with radiolabled ligands. […] Brain and blood were sampled 30 min after tracers injection and prepared for radioactivity analysis by TCA, HPLC and SDS-PAGE/immunoprecipitation analysis to determine the molecular forms of test-tracers. […] For SDS-PAGE analysis, TCA precipitated samples were resuspended in 1% SDS, vortexed and incubated at 55° C. for 5 min, then neutralized, boiled for 3 min, homogenized, and analyzed by electrophoresis in 10% Tris-Tricine gels followed by fluorography.
The percentage of Aβ cleared through the BBB was calculated as [(1−Nb(Aβ)/Ni(Aβ))−(1−Nb(inulin)/Ni(inulin))]×100, using a standard time of 30 min (3). […]

[4] = target: T4, LRP-1 cluster IV (Homo sapiens, UniProt Q07954); assay: Surface plasmon resonance binding of Aβ peptides to immobilized LRP-1 cluster IV; settings: RAP 500 nM
T4 construct: cluster IV (i.e., His3313 to Leu3759 as numbered in Herz et al., 1988); made in house; host or cells: stably transfected baby hamster kidney (BHK) cells
T4 sequence (Q07954 3313-3759): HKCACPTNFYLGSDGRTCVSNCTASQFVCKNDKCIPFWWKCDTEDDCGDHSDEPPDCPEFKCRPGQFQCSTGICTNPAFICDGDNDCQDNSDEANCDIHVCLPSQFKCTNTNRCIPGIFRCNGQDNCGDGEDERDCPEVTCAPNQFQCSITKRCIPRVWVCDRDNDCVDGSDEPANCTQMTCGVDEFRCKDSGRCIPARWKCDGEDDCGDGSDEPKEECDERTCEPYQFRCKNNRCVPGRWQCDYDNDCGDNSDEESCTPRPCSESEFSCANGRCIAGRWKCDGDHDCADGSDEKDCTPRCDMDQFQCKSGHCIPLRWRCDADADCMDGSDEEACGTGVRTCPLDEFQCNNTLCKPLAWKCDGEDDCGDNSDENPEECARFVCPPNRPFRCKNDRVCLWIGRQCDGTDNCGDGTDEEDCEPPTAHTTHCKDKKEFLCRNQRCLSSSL
Protocol: as §1

Substance: Dutch Aβ1-42: Dutch (E22Q) mutant Aβ1-42 peptide
- lower affinity (Ki) for LRP-mediated clearance on brain capillaries than Aβ1-40 [1]: 18 fold

Substance: Dutch Aβ1-40: Dutch (E22Q) mutant Aβ1-40 peptide
- lower affinity (Ki) for LRP-mediated clearance on brain capillaries than Aβ1-40 [1]: 6 fold

Substance: RAP: human recombinant receptor-associated protein, an LRP-1 antagonist
- Binding of Aβ peptides to LRP-1 cluster II in the presence of RAP [2]: abolished
- effect on Aβ elimination from brain [3]: almost completely abolished
- effect on Aβ1-40 brain capillary uptake ([1]; Aβ1-40 at 120 nM, RAP 1 μM, αLRP-1 60 μg/ml, NI IgG 60 μg/ml): completely inhibited; also recorded: abolished
- effect on 125I-Aβ1-40 uptake before (total) and after mild acid wash ([1]; RAP 500 nM, 37° C.): blocked
- Binding of Aβ peptides to LRP-1 cluster IV in the presence of RAP [4]: abolished

Source: patent publication US7608586B2, “Soluble low-density lipoprotein receptor related protein binds directly to Alzheimer's amyloid-beta peptide” (The University of Rochester, priority 2003, dated 2009)
